First the molecules themselves.
B1: F1*; the commonest letter at each place (parent)
chain: GAGACCGCAACTGAAAAGTTGTTATCACTTGTCGTAAGACACTTTGGATGGGTTGAAGTTCTGCACGTAGAAGCAAAAGGC

Variants of B1 are the subject of the series. The series can be described thus: fraction ligated after 30 min (ligated reads / total reads); higher = more ligase activity. The note with it: with F1*sub RNA substrate (template-directed ligation), 42 °C. In a few lines: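 Ligase ribozyme variants were made from oligo-pool templates by PCR amplification, T7 transcription and gel purification. After gel separation, ligated and unligated bands were reverse transcribed with barcoded primers and sequenced on a MiSeq, with core bases filtered at quality ≥20. The fraction ligated for each variant was the number of ligated reads divided by total reads.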
As for GAGACCGCAACTGAAAAGTTGTTATCACTTGTCGTATGACCCTTTGGATGGGTTGAAGTTCTGCACGTAGAAGCAAAAGGC [A37T A41C], the fraction ligated is 0.785.

For GAGACCGCAACTGAAAAGTTGTTATCACTTGTCGTATGACTCTTTGGATGGGTTGAAGTTCTGCACGTAGAAGCAAAAGGC [A37T A41T], the fraction ligated turned out to be 0.815.

For GAGACCGCAACTGAAAAGTTGTTATCACTTGTCGTATGACACTTTGGATGGGTTGAAGTTCTGCACGTAGAAGCAAAAGGC [A37T], the fraction ligated was 0.853.

For GAGACCGCAACTGAAAAGTTGTTATCACTTGTCGTATGACACCTTGGATGGGTTGAAGTTCTGCACGTAGAAGCAAAAGGC [A37T T43C], the fraction ligated worked out at 0.806.

As for GAGACCGCAACTGAAAAGTTGTTATCACTTGTCGTATGACACGTTGGATGGGTTGAAGTTCTGCACGTAGAAGCAAAAGGC [A37T T43G], the fraction ligated was 0.804.

As for GAGACCGCAACTGAAAAGTTGTTATCACTTGTCGTATGACACATTGGATGGGTTGAAGTTCTGCACGTAGAAGCAAAAGGC [A37T T43A], the fraction ligated came out at 0.848.

With GAGACCGCAACTGAAAAGTTGTTATCACTTGTCGTATGCCACTTTGGATGGGTTGAAGTTCTGCACGTAGAAGCAAAAGGC [A37T A39C], the fraction ligated came out at 0.785.

Consider GAGACCGCAACTGAAAAGTTGTTATCACTTGTCGTATGGCACTTTGGATGGGTTGAAGTTCTGCACGTAGAAGCAAAAGGC [A37T A39G], for which the fraction ligated turned out to be 0.837.

For the variant GAGACCGCAACTGAAAAGTTGTTATCACTTGTCGTATGTCACTTTGGATGGGTTGAAGTTCTGCACGTAGAAGCAAAAGGC [A37T A39T], the fraction ligated turned out to be 0.831.

As for GAGACCGCAACTGAAAAGTTGTTATCACTTGTCGTAGGACACTATGGATGGGTTGAAGTTCTGCACGTAGAAGCAAAAGGC [A37G T44A], the fraction ligated worked out at 0.839.

For GAGACCGCAACTGAAAAGTTGTTATCACTTGTCGTAGGACACTCTGGATGGGTTGAAGTTCTGCACGTAGAAGCAAAAGGC [A37G T44C], the fraction ligated is 0.869.

Take GAGACCGCAACTGAAAAGTTGTTATCACTTGTCGTAGGACACTGTGGATGGGTTGAAGTTCTGCACGTAGAAGCAAAAGGC [A37G T44G]: the fraction ligated amounted to 0.85.

Turning to GAGACCGCAACTGAAAAGTTGTTATCACTTGTCGTAGGACACTTTGGATCGGTTGAAGTTCTGCACGTAGAAGCAAAAGGC [A37G G50C], the fraction ligated amounted to 0.45.

Turning to GAGACCGCAACTGAAAAGTTGTTATCACTTGTCGTAGGACACTTTGGATTGGTTGAAGTTCTGCACGTAGAAGCAAAAGGC [A37G G50T], the fraction ligated was determined as 0.785.

On to GAGACCGCAACTGAAAAGTTGTTATCACTTGTCGTAGGACACTTTGGATAGGTTGAAGTTCTGCACGTAGAAGCAAAAGGC [A37G G50A], for which the fraction ligated was found to be 0.659.

GAGACCGCAACTGAAAAGTTGTTATCACTTGTCGTAGGACACTTAGGATGGGTTGAAGTTCTGCACGTAGAAGCAAAAGGC [A37G T45A]: the fraction ligated was determined as 0.804.

For GAGACCGCAACTGAAAAGTTGTTATCACTTGTCGTAGGACACTTGGGATGGGTTGAAGTTCTGCACGTAGAAGCAAAAGGC [A37G T45G], the fraction ligated is 0.407.

In the case of GAGACCGCAACTGAAAAGTTGTTATCACTTGTCGTAGGACACTTCGGATGGGTTGAAGTTCTGCACGTAGAAGCAAAAGGC [A37G T45C], the fraction ligated was 0.803.

Take GAGACCGCAACTGAAAAGTTGTTATCACTTGTCGTAGGACACTTTGGAGGGGTTGAAGTTCTGCACGTAGAAGCAAAAGGC [A37G T49G]: the fraction ligated is 0.807.

GAGACCGCAACTGAAAAGTTGTTATCACTTGTCGTAGGACACTTTGGAAGGGTTGAAGTTCTGCACGTAGAAGCAAAAGGC [A37G T49A]: the fraction ligated was 0.796.

With GAGACCGCAACTGAAAAGTTGTTATCACTTGTCGTAGGACACTTTGGACGGGTTGAAGTTCTGCACGTAGAAGCAAAAGGC [A37G T49C], the fraction ligated turned out to be 0.744.

As for GAGACCGCAACTGAAAAGTTGTTATCACTTGTCGTATGACACTTTAGATGGGTTGAAGTTCTGCACGTAGAAGCAAAAGGC [A37T G46A], the fraction ligated turned out to be 0.807.

Take GAGACCGCAACTGAAAAGTTGTTATCACTTGTCGTATGACACTTTTGATGGGTTGAAGTTCTGCACGTAGAAGCAAAAGGC [A37T G46T]: the fraction ligated turned out to be 0.784.

GAGACCGCAACTGAAAAGTTGTTATCACTTGTCGTATGACACTTTCGATGGGTTGAAGTTCTGCACGTAGAAGCAAAAGGC [A37T G46C]: the fraction ligated turned out to be 0.8.

Regarding GAGACCGCAACTGAAAAGTTGTTATCACTTGTCGTAGGACACTTTGAATGGGTTGAAGTTCTGCACGTAGAAGCAAAAGGC [A37G G47A], the fraction ligated is 0.831.

On to GAGACCGCAACTGAAAAGTTGTTATCACTTGTCGTAGGACACTTTGTATGGGTTGAAGTTCTGCACGTAGAAGCAAAAGGC [A37G G47T], for which the fraction ligated was determined as 0.397.

In the case of GAGACCGCAACTGAAAAGTTGTTATCACTTGTCGTAGGACACTTTGCATGGGTTGAAGTTCTGCACGTAGAAGCAAAAGGC [A37G G47C], the fraction ligated turned out to be 0.269.

Regarding GAGACCGCAACTGAAAAGTTGTTATCACTTGTCGTATGACACTTTGGATGGGTTCAAGTTCTGCACGTAGAAGCAAAAGGC [A37T G55C], the fraction ligated turned out to be 0.8.

In the case of GAGACCGCAACTGAAAAGTTGTTATCACTTGTCGTATGACACTTTGGATGGGTTTAAGTTCTGCACGTAGAAGCAAAAGGC [A37T G55T], the fraction ligated was 0.828.

On to GAGACCGCAACTGAAAAGTTGTTATCACTTGTCGTATGACACTTTGGATGGGTTAAAGTTCTGCACGTAGAAGCAAAAGGC [A37T G55A], for which the fraction ligated stood at 0.862.

Regarding GAGACCGCAACTGAAAAGTTGTTATCACTTGTCGTATGACACTCTGGATGGGTTGAAGTTCTGCACGTAGAAGCAAAAGGC [A37T T44C], the fraction ligated turned out to be 0.847.

For the variant GAGACCGCAACTGAAAAGTTGTTATCACTTGTCGTATGACACTATGGATGGGTTGAAGTTCTGCACGTAGAAGCAAAAGGC [A37T T44A], the fraction ligated is 0.834.

As to GAGACCGCAACTGAAAAGTTGTTATCACTTGTCGTAGCACACTTTGGATGGGTTGAAGTTCTGCACGTAGAAGCAAAAGGC [A37G G38C], the fraction ligated was found to be 0.828.

For GAGACCGCAACTGAAAAGTTGTTATCACTTGTCGTAGTACACTTTGGATGGGTTGAAGTTCTGCACGTAGAAGCAAAAGGC [A37G G38T], the fraction ligated worked out at 0.849.

Values taken from the supplement of paper PMC6755084.
